How the values were obtained:
[1] = target: endophilin SH3 (SH3G2_HUMAN) (UniProt Q99962); experiment: SPOT array
[2] = target: amphyphisin SH3 (AMPH_HUMAN) (UniProt P49418); experiment: SPOT array

normalised SPOT signal, Boehringer light units (BLU); mean over the file's lines of this peptide [1]: 269
normalised SPOT signal, Boehringer light units (BLU); mean over the file's lines of this peptide [2]: 245
Substance: P46781 11-24

Reference: article PMC314469, “Protein Interaction Networks by Proteome Peptide Scanning” (PLoS Biology, 2004)
